B1: CspZ from B. burgdorferi B31 (CspZB31), untagged recombinant protein (natural protein, Borrelia burgdorferi strain B31)
chain: RLNQRNINELKIFVEKAKYYSIKLDAIYNECTGAYNDIMTYSEGTFSDQSKVNQAISIFKKDNKIVNKFKELEKIIEEYKPMFLSKLIDDFAIELDQAVDNDVSNARHVADSYKKLRKSVVLAYIESFDVISSKFVDSKFVEASKKFVNKAKEFVEENDLIALECIVKTIGDMVNDREINSRSRYNNFYKKEADFLGAAVELEGAYKAIKQTLL
B2: histidine-tagged CspZB31 (natural protein, Borrelia burgdorferi strain B31)
chain: B1 chain

Assays:
mouse factor H [1] = target: T1, mouse factor H (mouse, UniProt P06909 19-1234); assay: SPR
mouse factor H [2] = target: T1, mouse factor H; assay: ELISA
human factor H = human factor H (human, UniProt P08603 19-1231); assay: ELISA
Chain of human factor H (P08603 19-1231): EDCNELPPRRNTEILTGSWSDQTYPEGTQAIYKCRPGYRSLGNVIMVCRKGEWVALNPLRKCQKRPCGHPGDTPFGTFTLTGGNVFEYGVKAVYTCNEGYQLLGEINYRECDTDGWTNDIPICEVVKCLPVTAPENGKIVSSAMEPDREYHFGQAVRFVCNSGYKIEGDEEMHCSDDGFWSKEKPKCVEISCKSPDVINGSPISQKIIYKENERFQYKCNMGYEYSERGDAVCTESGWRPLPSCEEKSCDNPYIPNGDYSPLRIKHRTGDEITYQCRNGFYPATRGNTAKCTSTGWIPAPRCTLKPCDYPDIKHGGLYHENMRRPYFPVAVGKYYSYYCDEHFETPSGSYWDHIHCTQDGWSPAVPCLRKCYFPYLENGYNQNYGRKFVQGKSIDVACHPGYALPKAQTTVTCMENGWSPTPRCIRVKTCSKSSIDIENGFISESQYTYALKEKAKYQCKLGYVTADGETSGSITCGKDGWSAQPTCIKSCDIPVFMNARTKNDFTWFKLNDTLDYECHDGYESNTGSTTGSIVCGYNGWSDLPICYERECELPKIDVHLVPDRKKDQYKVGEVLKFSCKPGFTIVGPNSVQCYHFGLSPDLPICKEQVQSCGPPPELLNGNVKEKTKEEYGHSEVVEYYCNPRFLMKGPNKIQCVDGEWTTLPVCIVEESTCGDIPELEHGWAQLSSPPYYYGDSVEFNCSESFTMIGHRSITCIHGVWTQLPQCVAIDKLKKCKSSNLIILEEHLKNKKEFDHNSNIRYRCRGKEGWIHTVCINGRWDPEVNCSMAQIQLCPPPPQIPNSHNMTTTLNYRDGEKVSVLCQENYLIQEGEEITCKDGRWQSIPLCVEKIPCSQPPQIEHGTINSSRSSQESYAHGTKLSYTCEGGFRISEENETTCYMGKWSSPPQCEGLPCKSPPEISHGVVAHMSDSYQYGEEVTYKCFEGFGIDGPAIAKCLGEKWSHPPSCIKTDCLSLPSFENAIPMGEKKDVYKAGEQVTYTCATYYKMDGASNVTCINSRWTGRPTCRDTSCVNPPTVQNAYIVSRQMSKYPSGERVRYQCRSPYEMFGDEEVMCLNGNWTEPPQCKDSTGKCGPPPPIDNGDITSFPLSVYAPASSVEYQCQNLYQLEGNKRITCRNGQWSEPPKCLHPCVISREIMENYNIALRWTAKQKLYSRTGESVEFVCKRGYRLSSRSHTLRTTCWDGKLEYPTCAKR

T1 sequence (P06909 19-1234): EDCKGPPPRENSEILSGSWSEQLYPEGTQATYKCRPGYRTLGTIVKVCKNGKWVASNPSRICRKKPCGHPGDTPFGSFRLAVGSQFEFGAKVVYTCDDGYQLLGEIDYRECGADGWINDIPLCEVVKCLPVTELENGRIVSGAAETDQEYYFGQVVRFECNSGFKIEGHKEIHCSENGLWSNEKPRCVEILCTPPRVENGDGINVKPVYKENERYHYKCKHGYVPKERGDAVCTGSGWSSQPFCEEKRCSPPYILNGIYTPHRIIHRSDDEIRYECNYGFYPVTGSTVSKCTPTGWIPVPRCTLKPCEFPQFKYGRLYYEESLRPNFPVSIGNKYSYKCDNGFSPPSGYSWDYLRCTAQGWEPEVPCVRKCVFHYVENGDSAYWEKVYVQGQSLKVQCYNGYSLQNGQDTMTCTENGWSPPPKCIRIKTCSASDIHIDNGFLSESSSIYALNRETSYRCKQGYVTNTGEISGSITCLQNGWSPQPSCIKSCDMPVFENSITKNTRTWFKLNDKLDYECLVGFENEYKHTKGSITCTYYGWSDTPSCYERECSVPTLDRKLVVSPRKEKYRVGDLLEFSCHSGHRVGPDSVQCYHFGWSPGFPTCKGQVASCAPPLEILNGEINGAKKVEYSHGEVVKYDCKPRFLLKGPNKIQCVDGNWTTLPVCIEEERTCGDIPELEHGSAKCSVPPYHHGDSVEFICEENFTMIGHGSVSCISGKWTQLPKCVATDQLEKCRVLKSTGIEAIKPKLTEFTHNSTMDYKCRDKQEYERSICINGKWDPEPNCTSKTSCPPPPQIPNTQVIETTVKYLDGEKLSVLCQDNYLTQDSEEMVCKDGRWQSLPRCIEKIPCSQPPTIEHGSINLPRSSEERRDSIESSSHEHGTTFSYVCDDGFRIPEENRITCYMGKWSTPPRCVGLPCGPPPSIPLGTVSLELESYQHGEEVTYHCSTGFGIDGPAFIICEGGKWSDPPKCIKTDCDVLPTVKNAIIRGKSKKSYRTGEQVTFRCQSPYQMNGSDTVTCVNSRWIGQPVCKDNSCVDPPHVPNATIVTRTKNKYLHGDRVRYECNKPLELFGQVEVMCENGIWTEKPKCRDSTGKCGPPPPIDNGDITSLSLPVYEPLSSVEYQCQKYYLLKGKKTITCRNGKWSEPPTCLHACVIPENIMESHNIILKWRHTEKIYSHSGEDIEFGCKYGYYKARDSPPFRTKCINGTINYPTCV

| Binder | binding result (mouse factor H [1]) | binding result (mouse factor H [2]) | binding result (human factor H) |
| --- | --- | --- | --- |
| B1 | binds | – | – |
| B2 | – | binds | binds |

— doi:10.1101/2022.09.13.507797 (bioRxiv, 2022)
